The data set can be described thus: label from the status in PepcDB records.
With “QKRLRRKLHEYQKNIPPQVRAARLADDINAKLGRPLQYQNRGRIEYLITLNGPEPHEYRNSPIDYQHYIDKQLKPVADAILPFIGTDFETLSAPQMGLF”, the protein production entry is reported as “failed”.
Consider “QMNTVFIKNEGVTEGEIATIGEHTAEISGVSTGTDWTRDYSQSGALRSLLGTVSTEKQGLPAEEVDEYLKKGYARNDRVGTSYLEKQYEDVLQGKKAKSEVVLDNNGKIVSQTPISKGEKGSNLKLTID”, for which the protein production result is reported as “failed”.
In the case of “QQKNMENKTLNENIPEMIISLEKEALASTDPMAFVELSDTDVIYFDPSLETKIEGLEQLRTYYKGMQLPPADHFDMIRPVVQVAQNIAVLTFNLDSYLSDKVIKWNCTEVYRRNPDNQWKIIQTHWSYVKPLD”, the protein production result was “not failed”.
Consider “QSGMKAELLDHGTAPVPSELAEYFPQVPEVALYHRLRCDEKTGEPTNHARNYVRPELAGRIDLDDLARWPMTKVLRDVVGMDISRITDTVEARLADPETARLLEVPLLSPILHYTGITYDLEGRVLDVAVIHYRGDRFSFTVTLDAT”, for which the protein production entry is given as “failed”.
Turning to “QSKTATVFLHGYNGGAYSTNYLIRKAEKAGAAQKALVVHVYKNGVMAFKGYWQKSIKNPMVQVVFQDNHASQKAQIYWLHQVLVQLKAKYGVKAYNAVGHSLGANDIVNQALKYGHDKRLPTLNKIVTIGGPFDGLTGFLSTQTEATVRRLDVKPSRFTKHFSEMLKYRHNFPDNVKLLNVYGDTNTGYNNDGFVGVASARSIRYLLRGKLTQYQEAFYSGEQAAHCALNQNPSVAHKMIAFLW”, the protein production result is “failed”.
On to “QSLRSFQKQNEDNDKRQQILRSINVNVSSSEAETKYNELIKEAFLVNENGEKVEGDAFATDVVKAATEHQYPVFVANVDGQPKYIMALHGAGLWGPLWGYISVDSDKNTIYGADFSHQGETPGLGAEISKPVFSNEFKGKKIFMSGEFKSVAVVKPGKSVAGQDYVDGISGGTITSKGVDEMLFNSLSGYVKFLTSQN”, for which the protein production result is given as “not failed”.
In the case of “QTVAQGKLTLSVPKAVGRFVIHPLMMAFFHRYPQVDVCLRLEDRPLDFIDDGIDLALRITDTPSPGLHGKPLMPIRHVICATEAYLQQHGTPYTPQDLRSHSCISLGETPADARWKFRREGKTETVQTYGRYAANHTAVR”, the protein production entry is “failed”.
“QVPILHRDADFLLRALQPDDFVRTSRYENANREHLAPWEPLRDPGYFSVDNARARTLLQVASMDEGEALLLLLLDPDDGEVLGRCSYTNIVRGVFQACHLGFSLAAAAQGRGLMARALRVANRYCFEQLGLHRIMASHLPRNARSERLLESLGFEKEGYARAYLKIAGVWEDHVLRALVDAPR”: the protein production entry was “not failed”.
Turning to “RAAASPITITVGDRALELSVLRPAAPKGVVVFSHGAGGTAEAYATLLEGWRQAGFLVVAPLHVDSQKHPRKTAYNLRSSFPLRIADVGAAAGWAAAAAPGLPLAYAGHSYGSLMSLMRGGALEGMIPARDPNAKAVLCFSSPGTIQGLMGPATFQTLTTPTMVLTGELDLVPGMVADWRDHLRAVEESPAGEKYAWIGKSVDHGLAHHPDNPAFAEASALSVTFLKAQLLGD”, the protein production entry is given as “failed”.
With “RAQTFEAVTPEYSRYAGQAFGSFQAMLSDLPDELGETIPNFHNMEFRLGQLHDALKTDPVGRAEEVRYYIDEIEKRAEEMCKAERLHREGKLPKRVCHCDTKVNNMLFDEDGHVLCVIDLDTVMPNFIFSDYGDFLRTGANTGEEDDKDLDHVNFDMEIFKAFTEGYLKGASSFLTDVEIENLPYAAALFPYMQCVRFLTDYINGDTYYKIKYPEHNLVRTRAQFRLLQSVEDCMPQMQAFIDQCLRY”, the protein production result is recorded as “not failed”.
Take “RDRPAGLLRINATLGFGRTHLAPAIARFRRIHPAVEVQLLLTDAPLNLVEEGIDLGIRFGAPPFGRMVMRLLQRNRRFLCAAPSYLEARGVPQSLTDLQQHSCIVLRQDHDAYDVW”: the protein production entry is “failed”.
As to “RDSLFICAVATTETSRIPGITGAGASPELTEYTPAADVELIVHDAPRCLPEIPQTIVEGEAAPTPAVITKAALELAEVPFMVADAGASVKPDVPYININSEPGGDIRTGRAVTEPQRIYERGLMVGRTLSSLTEHLVVGESTPAGTTTALGVLTALGYDADFRVSASMPHNPHDLKREVVMAGLSNAGIEKGDCSREPFRAVEAVGDPMIPAVAGICMGSTVPVTLAGGTQMTAVCALMRAIDPDFDFSDTAIATTIFVAEDSTSDINRIAEQIGDIDIYVVDPDFGSASHRGLHEYLNGSVKEGVGAGGAMLLALLH”, the protein production entry is on record as “failed”.
